Here are results for 55 molecules from PMC314469, “Protein Interaction Networks by Proteome Peptide Scanning” (PLoS Biology, 2004).

The chains are these.
B1: 204-217 nuclear protein involved in silencing (peptide)
chain: RRGPGRPRKDASTS
B2: 600-613 BEM1-binding protein (peptide)
chain: QSNPTSPTKQTFTI
B3: 71-84 Hypothetical ORF (peptide)
chain: SSQPRPPPRPQQNP
B4: 307-320 actin-related protein (peptide)
chain: SMYPGLPSRLEKEL
B5: 8-21 Transmembrane osmosensor (peptide)
chain: RPTPRKPSRMATDH
B6: 29-42 delta-1-pyrroline-5-carboxylate dehydrogenase (peptide)
chain: RNEPVKPFRNIDLK
B7: 333-346 Hypothetical ORF (peptide)
chain: SNFPDFPLKKYLKN
B8: 232-245 Hypothetical ORF (peptide)
chain: SSFPTIPLRASSGA
B9: 547-560 Ubiquitin-specific protease (peptide)
chain: SRKPPIPAKQHVKK
B10: 543-556 Hypothetical ORF (peptide)
chain: RAVPILPPRNNVEP
B11: 82-95 ISWI One Complex (peptide)
chain: RKRPAPPKKKAPST
B12: 407-420 Hypothetical ORF (peptide)
chain: RVHPEPPNKPGITT
B13: 878-891 involved in bud site selection (peptide)
chain: QRHPKSPVKKPMTS
B14: 776-789 vacuolar import degradation (peptide)
chain: RPNPTQPRKPLDSK
B15: 198-211 " RNA polymerase III (C) subunit, homologus to human BN51 protein" (peptide)
chain: QLFPVRPVRVRHED
B16: 142-155 " transcription factor, member of ADA and SAGA, two transcriptional adaptor/HAT (histone acetyltransferase)complexes" (peptide)
chain: RERPLEPPRKPMAS
B17: 457-470 transcriptional activator of the SKN7 mediated 'two-component' regulatory system (peptide)
chain: SNDPIPPPRKVSDV
B18: 110-123 Hypothetical ORF (peptide)
chain: SNNPSKPRKYKTKS
B19: 6-19 gamma-aminobutyrate (GABA) transaminase (4-aminobutyrate aminotransferase) (peptide)
chain: QYYPEEPTKPTVKT
B20: 124-137 " involved in meiosis, nuclear division and spore formation" (peptide)
chain: SELPKSPYRQKPTQ
B21: 100-113 transcription factor (peptide)
chain: QPAPRIPSKDAIIS
B22: 482-495 Ume6p is a C6 zinc finger URS1-binding protein. (peptide)
chain: QYIPPPPPKYINSK
B23: 24-37 Hypothetical ORF (peptide)
chain: QSQPPRPPRPAANL
B24: 443-456 Putative participant in 3' mRNA processing (peptide)
chain: SEEPTSPTRQVNPE
B25: 19-32 soluble cell wall protein (peptide)
chain: SALPILPKREVVTR
B26: 666-679 negative regulator of prp genes (peptide)
chain: SGKPKKPYRRWTPE
B27: 232-245 DNA replication helicase (peptide)
chain: SDLPSSPIKAPNVE
B28: 108-121 " Probable transcription-associated factor protein, probable -transducin type" (peptide)
chain: SSIPPNPGKTAKPI
B29: 329-342 Hypothetical ORF (peptide)
chain: SHQPYLPIKNKNIV
B30: 175-188 homologous to mouse and human Tsg101 tumor susceptibility genes (peptide)
chain: QNTPPLPPKPKSPH
B31: 80-93 member of the CCCH zinc finger protein family that has two or more repeats of a novel zinc finger motif consisting of Cy (peptide)
chain: RPSPWLPSKPNSYH
B32: 203-216 similar to E. coli DinB and S. cerevisiae REV1 (peptide)
chain: SHLPLIPEKIKSLK
B33: 13-26 Hypothetical ORF (peptide)
chain: SASPYRPQRLPAKF
B34: 1825-1838 Hypothetical ORF (peptide)
chain: SNSPQIPKKKVKDQ
B35: 353-366 Hypothetical ORF (peptide)
chain: SLPPTPPYKAHKKK
B36: 693-706 putative transcription factor (peptide)
chain: QLTPLLPDKYFDSA
B37: 12-25 Hypothetical ORF (peptide)
chain: RRKPHSPNKKKPKE
B38: 14-27 Hypothetical ORF (peptide)
chain: RLIPTSPQKTNINT
B39: 47-60 Hypothetical ORF (peptide)
chain: RGTPANPGRVATLI
B40: 665-678 Hypothetical ORF (peptide)
chain: SLAPVYPLKSLLRI
B41: 221-234 MAP protein kinase homolog involved in pheromone signal transduction (peptide)
chain: SGKPLFPGRDYHHQ
B42: 341-354 DNA Damage Inducible; binds to T- and V- snare complexes (peptide)
chain: SDKPLTPTKTSSTL
B43: 166-179 involved in ion homeostasis (peptide)
chain: QIFPKKPLRRTVMS
B44: 7-20 Hypothetical ORF (peptide)
chain: RIPPTVPSKIIDVV
B45: 258-271 Putative participant in 3' mRNA processing (peptide)
chain: RPPPLTPEKNLYLT
B46: 26-39 Component of the exocyst complex; homolog in rat brain called rExo84. (peptide)
chain: QKTPPSPAKPKQKT
B47: 427-440 soluble tyrosine-specific protein phosphatase (peptide)
chain: QTSPGQPRKGQNGS
B48: 310-323 " similar to Est1, which is a putative component of telomerase" (peptide)
chain: SKGPRTPAKEILEF
B49: 473-486 positive transcriptional regulator of ADH2 and peroxisomal protein genes (peptide)
chain: SNSPISPHKLIYKN
B50: 1382-1395 negative regulator of early meiotic genes (peptide)
chain: SAFPQSPIRAYGST
B51: 141-154 methionyl tRNA synthetase (peptide)
chain: SKFPELPSKVHNAV
B52: 505-518 Meiotic regulatory protein; Cys-His zinc fingers (peptide)
chain: SKIPMLPSRRTMAG
B53: 391-404 binds to single-stranded TG1-3 telomere G-tails (peptide)
chain: QLLPNVPDKVLVPG
B54: 62-75 Hypothetical ORF (peptide)
chain: SASPTLPTRRSRRL
B55: 117-130 Product of gene unknown (peptide)
chain: SSMPNSPKKPVDSL

In the experiment the target is Sho1 SH3 (SHO1_YEAST), P40073. The experiment can be described thus: SPOT array.
Chain of Sho1 SH3 (SHO1_YEAST), P40073 (P40073 295-366): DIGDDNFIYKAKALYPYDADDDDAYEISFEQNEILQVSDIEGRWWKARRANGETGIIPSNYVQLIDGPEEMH
B1 came in with a normalised SPOT signal, Boehringer light units (BLU); mean over the file's lines of this peptide of 998.
Turning to B2, the normalised SPOT signal, Boehringer light units (BLU); mean over the file's lines of this peptide stood at 39.1.
Under B3 stands 83.4; under B4, 334; under B5, 1440.
Under B6 stands 87.5; under B7, 115; under B8, 210.
Take B9: the normalised SPOT signal, Boehringer light units (BLU); mean over the file's lines of this peptide came to 1010.
For B10, the normalised SPOT signal, Boehringer light units (BLU); mean over the file's lines of this peptide came to 126.
In the case of B11, the normalised SPOT signal, Boehringer light units (BLU); mean over the file's lines of this peptide was found to be 208.
Under B12 stands 149; under B13, 190.
On to B14, for which the normalised SPOT signal, Boehringer light units (BLU); mean over the file's lines of this peptide was determined as 99.9.
Under B15 stands 95.2; under B16, 554.
For the molecule B17, the normalised SPOT signal, Boehringer light units (BLU); mean over the file's lines of this peptide stood at 108.
On to B18, for which the normalised SPOT signal, Boehringer light units (BLU); mean over the file's lines of this peptide was found to be 332.
Take B19: the normalised SPOT signal, Boehringer light units (BLU); mean over the file's lines of this peptide came out at 111.
Then B20, with 200.
Consider B21, for which the normalised SPOT signal, Boehringer light units (BLU); mean over the file's lines of this peptide came out at 498.
Under B22 stands 304.
Turning to B23, the normalised SPOT signal, Boehringer light units (BLU); mean over the file's lines of this peptide was 128.
In the case of B24, the normalised SPOT signal, Boehringer light units (BLU); mean over the file's lines of this peptide came to 157.
Under B25 stands 141.
B26 showed a normalised SPOT signal, Boehringer light units (BLU); mean over the file's lines of this peptide of 233.
Under B27 stands 191; under B28, 121.
B29 had a normalised SPOT signal, Boehringer light units (BLU); mean over the file's lines of this peptide of 65.5.
Consider B30, for which the normalised SPOT signal, Boehringer light units (BLU); mean over the file's lines of this peptide worked out at 8430.
B31 came in with a normalised SPOT signal, Boehringer light units (BLU); mean over the file's lines of this peptide of 1300.
Consider B32, for which the normalised SPOT signal, Boehringer light units (BLU); mean over the file's lines of this peptide was found to be 175.
As for B33, the normalised SPOT signal, Boehringer light units (BLU); mean over the file's lines of this peptide was 118.
In the case of B34, the normalised SPOT signal, Boehringer light units (BLU); mean over the file's lines of this peptide came to 67.2.
Then B35, with 544; and B36, with 57.6.
Then B37, with 173.
In the case of B38, the normalised SPOT signal, Boehringer light units (BLU); mean over the file's lines of this peptide is 85.2.
Molecule B39 had a normalised SPOT signal, Boehringer light units (BLU); mean over the file's lines of this peptide of 123.
Under B40 stands 91.3; under B41, 103.
Under B42 stands 135.
Molecule B43 displayed a normalised SPOT signal, Boehringer light units (BLU); mean over the file's lines of this peptide of 534.
Then B44, with 521; and B45, with 117.
Under B46 stands 203; under B47, 61.3; under B48, 1610.
With B49, the normalised SPOT signal, Boehringer light units (BLU); mean over the file's lines of this peptide stood at 86.9.
In turn, B50 returned a normalised SPOT signal, Boehringer light units (BLU); mean over the file's lines of this peptide of 75.1.
B51: the normalised SPOT signal, Boehringer light units (BLU); mean over the file's lines of this peptide worked out at 124.
Then B52, with 1130; and B53, with 46.5; and B54, with 212.
Under B55 stands 63.7.
